Here are results for 1 molecule from patent US6407216 (Genentech, dated 2002).

Test [1] concerns the target T1, rat Smoothened (rSmo), Flag epitope tagged, expressed on transfected cells (rat, UniProt P97698 33-793).
T1 construct: residues 33-793 derived from that statement; Transiently expressed in COS-7 or 293 cells; co-immunoprecipitations were done from cell lysates; also called Flag tagged rSmo
Kind of test: staining of transfected cells exposed to the ligand. On the procedure: (§1) Binding assays were conducted to test binding between cells expressing rSmo or dSmo and (1) epitope tagged SHH-N, (2) an IgG-SHH-N chimera, and (3) an epitope tagged Desert HH. For visualization of SHH binding, COS-7 cells (Genentech, Inc.) transiently expressing rSmo or mPatched (murine Patched) were exposed to epitope tagged SHH-N (2 hours at 4° C.), washed 4 times with PBS, then fixed and stained with a cy3-conjugated anti-human IgG (Jackson ImmunoResearch) (for IgG-SHH-N) or anti-Flag M2 antibody (Kodak/IBI) (for Flag-tagged SHH-N).

The target in test [2] is T2, Drosophila Smoothened (dSmo), epitope tagged, expressed on transfected cells (Drosophila, UniProt P91682 32-1036).
T2 construct: cDNA described in Alcedo et al; also called dros.smo
T2 sequence: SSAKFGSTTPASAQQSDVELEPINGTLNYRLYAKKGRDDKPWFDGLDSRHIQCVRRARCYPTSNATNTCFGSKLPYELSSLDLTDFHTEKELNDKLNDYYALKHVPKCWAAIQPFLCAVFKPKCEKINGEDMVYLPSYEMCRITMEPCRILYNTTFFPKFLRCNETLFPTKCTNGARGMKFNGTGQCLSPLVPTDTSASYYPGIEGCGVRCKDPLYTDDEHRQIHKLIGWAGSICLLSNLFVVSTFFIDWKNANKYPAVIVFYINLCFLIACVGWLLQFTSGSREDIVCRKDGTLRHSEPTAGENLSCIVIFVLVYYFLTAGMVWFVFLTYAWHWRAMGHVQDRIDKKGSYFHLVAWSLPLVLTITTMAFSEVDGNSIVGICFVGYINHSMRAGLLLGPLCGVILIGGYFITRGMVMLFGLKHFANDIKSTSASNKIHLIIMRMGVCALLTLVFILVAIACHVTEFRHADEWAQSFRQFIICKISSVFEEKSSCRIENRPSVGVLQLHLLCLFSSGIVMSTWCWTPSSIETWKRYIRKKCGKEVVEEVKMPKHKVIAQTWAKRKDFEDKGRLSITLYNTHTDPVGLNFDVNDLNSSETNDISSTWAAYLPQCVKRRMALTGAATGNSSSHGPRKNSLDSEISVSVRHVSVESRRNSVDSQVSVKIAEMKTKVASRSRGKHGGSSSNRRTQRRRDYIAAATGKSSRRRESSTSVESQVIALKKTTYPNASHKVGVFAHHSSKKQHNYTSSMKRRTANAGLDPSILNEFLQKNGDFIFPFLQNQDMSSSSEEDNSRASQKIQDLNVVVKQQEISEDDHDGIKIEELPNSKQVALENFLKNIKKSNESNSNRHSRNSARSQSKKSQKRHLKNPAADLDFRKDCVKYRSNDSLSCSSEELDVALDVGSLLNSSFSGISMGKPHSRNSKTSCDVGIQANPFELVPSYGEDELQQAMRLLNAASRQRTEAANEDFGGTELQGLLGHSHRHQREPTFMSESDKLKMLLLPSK
The test is described as above. Here is the method:
as §1

T1 sequence (P97698 33-793): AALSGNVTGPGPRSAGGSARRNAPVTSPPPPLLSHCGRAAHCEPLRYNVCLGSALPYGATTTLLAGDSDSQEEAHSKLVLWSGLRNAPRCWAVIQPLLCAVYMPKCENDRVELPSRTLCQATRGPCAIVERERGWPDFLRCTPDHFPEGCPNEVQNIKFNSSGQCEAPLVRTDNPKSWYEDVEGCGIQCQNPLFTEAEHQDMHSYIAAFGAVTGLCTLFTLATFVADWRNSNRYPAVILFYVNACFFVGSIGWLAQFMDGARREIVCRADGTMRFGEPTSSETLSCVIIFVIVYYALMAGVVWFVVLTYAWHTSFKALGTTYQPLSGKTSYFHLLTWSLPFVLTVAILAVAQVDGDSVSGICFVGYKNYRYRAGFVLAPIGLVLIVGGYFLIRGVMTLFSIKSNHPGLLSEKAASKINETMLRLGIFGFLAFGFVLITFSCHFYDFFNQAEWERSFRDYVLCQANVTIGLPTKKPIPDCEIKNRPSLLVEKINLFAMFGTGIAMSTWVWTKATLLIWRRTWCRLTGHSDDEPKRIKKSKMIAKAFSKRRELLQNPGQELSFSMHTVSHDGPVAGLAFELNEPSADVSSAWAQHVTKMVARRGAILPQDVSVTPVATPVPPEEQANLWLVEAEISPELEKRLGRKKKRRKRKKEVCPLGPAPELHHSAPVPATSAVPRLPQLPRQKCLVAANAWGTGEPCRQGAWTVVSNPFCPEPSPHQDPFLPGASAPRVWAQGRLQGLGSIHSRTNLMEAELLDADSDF

B1: epitope tagged Desert HH (ligand, not shown: small tags and cut ends)
chain: not shown
B1: the binding result in test [1] and in test [2] was “no binding” in each case.
